What is called Kd is the equilibrium constant for the complex coming apart.

Experiment [1] deals with T1, human fibulin-3 (human, UniProt Q12805 18-493, limits assumed).
T1 construct: Purified human fibulin-3 in Western blot, dot blot and BIACORE (there pretreated with 10 mM DTT to dissociate multimers); The same entry is used for fibulin-3 secreted by transfected CNS1 cells and for native fibulin-3 in human tissue sections; also called Fib3; EFEMP1 gene product
T1 sequence (looked up): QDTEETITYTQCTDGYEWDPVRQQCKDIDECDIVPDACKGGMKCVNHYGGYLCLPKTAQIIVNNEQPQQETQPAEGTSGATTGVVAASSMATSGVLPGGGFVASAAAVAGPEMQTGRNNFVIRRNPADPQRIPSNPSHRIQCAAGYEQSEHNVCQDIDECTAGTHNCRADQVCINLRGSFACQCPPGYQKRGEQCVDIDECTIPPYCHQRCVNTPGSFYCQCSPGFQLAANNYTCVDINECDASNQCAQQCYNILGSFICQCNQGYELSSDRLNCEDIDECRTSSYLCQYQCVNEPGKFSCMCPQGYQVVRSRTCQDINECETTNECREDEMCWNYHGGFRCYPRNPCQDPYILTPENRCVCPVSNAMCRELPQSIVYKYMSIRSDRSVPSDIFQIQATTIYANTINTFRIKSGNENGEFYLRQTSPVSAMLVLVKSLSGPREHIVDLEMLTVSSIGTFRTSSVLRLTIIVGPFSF
The experiment can be described thus: method not stated there (summary of the tests). As for the experimental part: (§1) Experiments were performed in duplicate and fit to a 1:1 binding interaction model.

Experiment [2] concerns the target T1, human fibulin-3. Nature of the experiment: SPR (BIACORE), antibody immobilized on the chip, purified human fibulin-3 pretreated with 10 mM DTT, duplicate, 1:1 model. Here is the method:
as §1
(In general: In SPR one partner is held on a chip, and binding of the other changes the refractive index at the surface.)

Experiment [3] has as its target T1, human fibulin-3. Nature of the experiment: BIACORE, antibody immobilised on the chip, purified human fibulin-3 pretreated with 10 mM DTT as analyte (200-600 nM), 1:1 model; first of two runs (upper panel). Here is the method: as §1
Experiment [4] concerns the target T1, human fibulin-3. The experiment can be described thus: BIACORE, antibody immobilised on the chip, purified human fibulin-3 pretreated with 10 mM DTT as analyte (200-600 nM), 1:1 model; second of two runs (lower panel). Here is the method: as §1

B1: mAb428.2.3C11.H11.G3 (antibody, IgG1, V domains shown)
VH: QIQLVQSGPELKKPGETVKISCKASGYSFTTYGMSWVKQAPGKGLKWMGWINTYSGVPTYADDFKGRFAFFLETSASTAYLQINNLKNEDTATYFCARWVDYWGQGTTLTVSS
VL: DIKMTQSPSSMYASLGERVTITCKASQDIKSYLSWHQQKPWKSPKTLIYYATSLADGVPSRFSGSGSGQDYSLTISSLESDDTATYYCLQHGKSPYTFGGGTKLEIK
notes: also called mAb428.3C11; mAb428.3C11.H11.G3
Turning to B1, the Kd was 5 nM with human fibulin-3 [1], ~4.5 nM with human fibulin-3 [2], 6.97 nM in the experiment with human fibulin-3 [3] and 2.03 nM with human fibulin-3 [4].

The values above are taken from patent publication US20190177426A1 (BRIGHAM AND WOMEN S HOSPITAL, published 2019).
